Among the data in the supplement of paper PMC10126150 are switch fluorescence ratio values, retold here.

This data set relates to ATP. Briefly: switch fluorescence ratio, 500 uM ATP over buffer (Cy3 cluster intensity, sum of 5 cycles each) (fold (ratio)); higher = stronger signal-on switching upon ATP binding; sequences stand for … in TCGTCGGCAGCGTCAGATGTGTATAAGAGACAGTTTTTTTTTTTTTTTTTTTTTTTTT…TC. The note with it: aptamer strand: ATP DNA aptamer (quencher-CACCTGGGGGAGTATTGCGGAGGAAGG + anchor), 100 nM annealed; ATP concentration: 500 uM. The method in brief:
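The fluorescence ratio divides summed target-cycle Cy3 intensity by summed buffer-cycle Cy3 intensity for each cluster and is averaged per switch-domain sequence. Cy3-labelled switching-strand clusters on a modified Illumina MiSeq flow-cell were annealed to 100 nM quencher-labelled ATP aptamer, then imaged in selection buffer and again after 15 min with 500 uM ATP at 22 °C. Five such cycles were run, with NaOH stripping and re-annealing between them, and clusters outside 100-1000 RFU were excluded.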

± gives the standard deviation of the averaged measurements.
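Further: ATP exposure 15 min at 22 °C before imaging.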

Regarding GGACGCTGTG, the switch fluorescence ratio was found to be 0.986 ± 0.043.

Regarding GGGGATATAT, the switch fluorescence ratio came out at 1 ± 0.035.

In the case of ACTTAGTCA, the switch fluorescence ratio is 1.02 ± 0.021.

Take GGCGGGACCG: the switch fluorescence ratio amounted to 0.959 ± 0.03.

As for AAAGAACACT, the switch fluorescence ratio came to 1.06 ± 0.037.

In the case of AAATGGAGGG, the switch fluorescence ratio came out at 1.01 ± 0.044.

With ACATGCGGGG, the switch fluorescence ratio amounted to 1.019 ± 0.01.

On to GGGCCGAATG, for which the switch fluorescence ratio is 1.009 ± 0.0025.

For the sequence AGGCGCAGGG, the switch fluorescence ratio was 0.9982 ± 0.0089.

Regarding GGTGCAGTGT, the switch fluorescence ratio was 1.05 ± 0.017.

TTCATAGGTT: the switch fluorescence ratio was found to be 1.02 ± 0.012.

Regarding ATCGAAATGG, the switch fluorescence ratio was 1 ± 0.024.

As for TGGGGATCTC, the switch fluorescence ratio amounted to 1.01 ± 0.024.

Take AGTTTTTCGT: the switch fluorescence ratio was 1.01 ± 0.019.

ACTGTATACG: the switch fluorescence ratio was found to be 1.08 ± 0.026.

On to TGATGGGGTG, for which the switch fluorescence ratio was 0.99 ± 0.012.

As to GGTGGCTTAA, the switch fluorescence ratio was found to be 0.96 ± 0.024.

Turning to CAGCTAGTGT, the switch fluorescence ratio turned out to be 0.984 ± 0.028.

With GATGTCAGGC, the switch fluorescence ratio is 0.996 ± 0.01.

Take ATTTGGGAGA: the switch fluorescence ratio amounted to 0.978 ± 0.042.

Consider TTTTGGTTCG, for which the switch fluorescence ratio turned out to be 0.987 ± 0.032.

On to GGCCACAGCA, for which the switch fluorescence ratio came out at 1.07 ± 0.016.

For GACCTATCTT, the switch fluorescence ratio was determined as 1.035 ± 0.0017.

As to AATCGGGACC, the switch fluorescence ratio came out at 0.9905 ± 0.002.

For ACGTTGGGCA, the switch fluorescence ratio was determined as 0.99 ± 0.014.

In the case of TGAAGCATTT, the switch fluorescence ratio is 1.17 ± 0.14.

With ATGTTTCACA, the switch fluorescence ratio is 0.951 ± 0.011.

Consider ATTTTTGCGT, for which the switch fluorescence ratio worked out at 1.01 ± 0.041.

Take GTTGGGGTCA: the switch fluorescence ratio is 0.988 ± 0.011.

In the case of CGGTAGCGCC, the switch fluorescence ratio came out at 0.99 ± 0.06.

In the case of GGGAAGATTC, the switch fluorescence ratio amounted to 1.01 ± 0.04.

Take GGTGTAATTG: the switch fluorescence ratio was found to be 1.003 ± 0.0065.

For AATATAGGCG, the switch fluorescence ratio was 1.04 ± 0.073.

Turning to GTGGAAATAG, the switch fluorescence ratio stood at 1.01 ± 0.05.

Consider AATCGGCCGG, for which the switch fluorescence ratio was determined as 1.01 ± 0.053.

On to CTAGTAGGGG, for which the switch fluorescence ratio was determined as 0.984 ± 0.022.

GCTATCATCG: the switch fluorescence ratio turned out to be 0.997 ± 0.035.

For TGTGAGGCGG, the switch fluorescence ratio came out at 1.04 ± 0.11.

On to TTGGTCTGGG, for which the switch fluorescence ratio worked out at 1.01 ± 0.064.

As for TTACCCCCGT, the switch fluorescence ratio turned out to be 1.56 ± 0.079.

On to GGACTGGGCT, for which the switch fluorescence ratio turned out to be 0.9806 ± 0.0081.

In the case of TAGTTGGATG, the switch fluorescence ratio came to 1 ± 0.038.

Turning to AAGTTGAGTT, the switch fluorescence ratio came out at 1.007 ± 0.0017.

AATTGAAGGC: the switch fluorescence ratio is 0.972 ± 0.022.

As for GTGTGGCTGG, the switch fluorescence ratio stood at 0.9398 ± 0.0088.

As for TTGATCGCTC, the switch fluorescence ratio was determined as 1.82 ± 1.

As to GGGTCATTGT, the switch fluorescence ratio worked out at 1.03 ± 0.032.

As for CCGTCAGAGT, the switch fluorescence ratio is 1.09 ± 0.014.

Turning to AAGACAGTGC, the switch fluorescence ratio came out at 0.9932 ± 0.0059.

Consider TTTATTCGAA, for which the switch fluorescence ratio was determined as 0.99821 ± 0.00092.

With ATTTAGTCAG, the switch fluorescence ratio is 0.9737 ± 0.0053.

GAGAGTTATT: the switch fluorescence ratio was 0.988 ± 0.04.

For the sequence TTTCTTTGGT, the switch fluorescence ratio turned out to be 1.016 ± 0.0075.

On to TGTAAACGGG, for which the switch fluorescence ratio was 1.09 ± 0.12.

Turning to AGTGAATGGA, the switch fluorescence ratio turned out to be 0.991 ± 0.024.

Turning to CGGAGTAACG, the switch fluorescence ratio was found to be 1.04 ± 0.03.

For GTTAAAAGGG, the switch fluorescence ratio is 1.01 ± 0.028.

As for GGGGGCGTTG, the switch fluorescence ratio stood at 1.01 ± 0.02.

Consider CCCGCTAGTG, for which the switch fluorescence ratio is 1.54 ± 0.12.

Take TCGGCGTTGG: the switch fluorescence ratio was determined as 1.03 ± 0.026.

As for TACGTTTTGT, the switch fluorescence ratio is 1.01 ± 0.011.

In the case of ATAGTCAAGG, the switch fluorescence ratio stood at 0.982 ± 0.028.

As for TCGGAATTGC, the switch fluorescence ratio was determined as 1.56 ± 0.33.

Turning to CTTGGAAGGG, the switch fluorescence ratio stood at 0.9683 ± 0.006.

For the sequence TTTATATGGC, the switch fluorescence ratio came to 1.03 ± 0.08.

Consider AAGAAGGCGG, for which the switch fluorescence ratio is 0.9845 ± 0.0069.

As to GCCGGATCTT, the switch fluorescence ratio was found to be 1.01 ± 0.02.

Regarding ACTATGATCA, the switch fluorescence ratio amounted to 1.02 ± 0.014.

In the case of CGGGGATTCG, the switch fluorescence ratio worked out at 0.996 ± 0.026.

Consider TGTTATTGGT, for which the switch fluorescence ratio was 1.01 ± 0.015.

For ATTGTCTTTG, the switch fluorescence ratio was determined as 0.982 ± 0.018.

As for AGAACGTTCT, the switch fluorescence ratio worked out at 0.9851 ± 0.0059.

With TAAAGGGATC, the switch fluorescence ratio is 0.978 ± 0.017.

With AGAAGCTATT, the switch fluorescence ratio worked out at 0.9724 ± 0.0017.

On to GAGTACTCCT, for which the switch fluorescence ratio is 1.04 ± 0.04.

In the case of TAGCCGGCCT, the switch fluorescence ratio is 1.05 ± 0.025.

In the case of TAAGGGGGAC, the switch fluorescence ratio turned out to be 1.01 ± 0.053.

In the case of CATTTGCGGA, the switch fluorescence ratio is 0.981 ± 0.055.

For ATAGGCTAAA, the switch fluorescence ratio came to 1.04 ± 0.044.
